Results published in US11254722B2, “Recombinant proteins and uses thereof” (ACADEMIA SINICA, priority 2017, dated 2022).
Like-named read-outs stand apart in the source and are kept apart here.

T1: nrgEGF (amino acids Thr176-Lys246 of neuregulin-beta 1) (Homo sapiens, UniProt Q02297)
T1 construct: Thr176-Lys246 of neuregulin-beta 1; purchased R&D Sciences or SinoBiologicals
T1 sequence (Q02297 176-246 isoform Q02297-6): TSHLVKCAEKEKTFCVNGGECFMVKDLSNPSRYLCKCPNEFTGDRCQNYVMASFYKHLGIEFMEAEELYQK

T2: VEGF B (Homo sapiens, UniProt P49765)
T2 construct: purchased R&D Sciences or SinoBiologicals
T2 sequence (P49765 22-207): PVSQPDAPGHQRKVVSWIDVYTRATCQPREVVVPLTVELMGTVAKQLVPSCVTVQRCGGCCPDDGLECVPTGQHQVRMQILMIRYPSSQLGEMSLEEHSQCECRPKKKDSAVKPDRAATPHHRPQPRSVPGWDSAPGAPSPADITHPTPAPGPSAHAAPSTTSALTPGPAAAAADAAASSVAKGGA

B1: IGFBP3-v1v2-erbB4-Fc: ErbB4-GS-IGFBP3-gly 3 linker-v1v2-Fc, SEQ ID NO: 20 (protein)
chain: MSEVPVARVWLVLLLLTVQVGVTAGVQPSDSQSVCAGTENKLSSLSDLEQQYRALRKYYENCEVVMGNLEITSIEHNRDLSFLRSVREVTGYVLVALNQFRYLPLENLRIIRGTKLYEDRYALAIFLNYRKDGNFGLQELGLKNLTEILNGGVYVDQNKFLCYADTIHWQDIVRNPWPSNLTLVSTNGSSGCGRCHKSCTGRCWGPTENHCQTLTRTVGGGGSGGGGSGGGGSGGGGSGGGGGASSAGLGPVVRCEPCDARALAQCAPPPAVCAELVREPGCGCCLTCALSEGQPCGIYTERCGSGLRCQPSPDEARPLQALLDGRGLCVNASAVSKGHAKDSQRYKVDYESQSTDTQNFSSESKRETEYGPCRREMEDTLNHLKFLNVLSPRGVHIPNCDKKGFYKKKQCRPSKGRKRGFCWCVDKYGQPLPGYTTKGKEDVHCYSMQSKAPPAPGNASESEEDRSAGIYIFISDTGRPFVEMYSEIPEIIHMTEGRELVIPCRVTSPNITVTLKKFPLDTLIPDGKRIIWDSRKGFIISNATYKEIGLLTCEATVNGHLYKTNYLTHRQGYRIYDVVLSPSHGIELSVGEKLVLNCTARTELNVGIDFNWEYPSSKHQHKKLVNRDLKTQSGSEMKKFLSTLTIDGVTRSDQGLYTCAASSGLMTKKNSTFVRVHEKVECPPCPAPPVAGPSVFLFPPKPKDQLMISRTPEVTCVVVDVSHEDPEVKFNWYVDGVEVHNAKTKPREEQYNSTYRVVSVLTVLHQDWLNGKEYKCKVSNKGLPSSIEKTISKAKGQPREPQVYTLPPSREEMTKNQVSLTCLVKGFYPSDIAVEWESNGQPENNYKTTPPVLDSDGSFFLYSKLTVDKSRWQQGNVFSCSVMHEGLHNHYTQKSLSLSPGK
B2: 4142: SEQ ID NO: 24; the N-terminus only (protein)
chain: MSEVPVARVWLVLLLLTVQVGVTAGGASSAGLGPVVRCEPCDARALAQCAPPPAVCAELVREPGCGCCLTCALSEGQPCGIYTERCGSGLRCQPSPDEARPLQALLDGRGLCVNASAVSVECPPCPAPPVAGPSVFLFPPKPKDQLMISRTPEVTCVVVDVSHEDPEVKFNWYVDGVEVHNAKTKPREEQYNSTYRVVSVLTVLHQDWLNGKEYKCKVSNKGLPSSIEKTISKAKGQPREPQVYTLPPSREEMTKNQVSLTCLVKGFYPSDIAVEWESNGQPENNYKTTPPVLDSDGSFFLYSKLTVDKSRWQQGNVFSCSVMHEGLHNHYTQKSLSLSPGK
B3: 4382: SEQ ID NO: 25; the complete link region (protein)
chain: MSEVPVARVWLVLLLLTVQVGVTAGGASSAVNASAVSRLRAYLLPAPPAPGNASESEEDRSAGSVESPSVSSTHRVSDPKFHPLHSKIIIIKKGHAKDSQRYKVDYESQSTDTQNFSSESKREVECPPCPAPPVAGPSVFLFPPKPKDQLMISRTPEVTCVVVDVSHEDPEVKFNWYVDGVEVHNAKTKPREEQYNSTYRVVSVLTVLHQDWLNGKEYKCKVSNKGLPSSIEKTISKAKGQPREPQVYTLPPSREEMTKNQVSLTCLVKGFYPSDIAVEWESNGQPENNYKTTPPVLDSDGSFFLYSKLTVDKSRWQQGNVFSCSVMHEGLHNHYTQKSLSLSPGK
B4: 4141: SEQ ID NO: 23; a fragment comprising the N-terminus and the linker region from h3t33 (protein)
chain: MSEVPVARVWLVLLLLTVQVGVTAGGASSAGLGPVVRCEPCDARALAQCAPPPAVCAELVREPGCGCCLTCALSEGQPCGIYTERCGSGLRCQPSPDEARPLQALLDGRGLCVNASAVSKGHAKDSQRYKVDYESQSTDTQNFSSESKRETEYVECPPCPAPPVAGPSVFLFPPKPKDQLMISRTPEVTCVVVDVSHEDPEVKFNWYVDGVEVHNAKTKPREEQYNSTYRVVSVLTVLHQDWLNGKEYKCKVSNKGLPSSIEKTISKAKGQPREPQVYTLPPSREEMTKNQVSLTCLVKGFYPSDIAVEWESNGQPENNYKTTPPVLDSDGSFFLYSKLTVDKSRWQQGNVFSCSVMHEGLHNHYTQKSLSLSPGK

Key:
PC-9 tumors = test: PC-9 subcutaneous tumors in mice, low dose erlotinib; assay type: in vivo; settings: erlotinib 25 mg/kg 3 times per week; FIG. 27
Description: (§1) 5×10exp6 PC-9 non-small cell lung cancer cells were injected subcutaneously in Nod scid gamma (NSG) mice. […] Erlotinib in 6% captisol was dosed orally daily at 25 mg/kg; IGFBP3Fc (3(del3)3) was dosed intraperitoneally at 25 mg/kg three times per week; control animals were administered vehicle. Dosing was started on day 11; erlotinib and erlotinib plus D3 was discontinued on day 19; D3 injections were discontinued on day 22.
Subcutaneous PC-9 tumors were generated and measured as above. Chimera D3 was dosed as above; erlotinib was dosed at 25 mg/kg 3 times per week in order to examine the effect of the chimera D3 on the tumor growth with suboptimal erlotinib dosing. The treatment started on day 8 and ended on day 22.

hep3B cells = test: hep3B proliferation assay; assay type: cell-based, human; settings: Homo sapiens, Hep3B, FIG. 15, read-out: IC50 of erlotinib to EGFR-wildtype hep3B cells
Description: For the proliferation assay, cells except for HUVEC were seeded at a density of 1,000 to 6,000 in 96 wells in an assay buffer of DMEM/F12 plus 0.2% BSA and 10 ug/ml transferrin. Chemical inhibitors were added after 16-20 hours after plating; IGF-1 or other growth factors or test chimeras in assay buffer were added at the time of plating or 16-20 hours after plating. 5,000 HUVEC ells were plated in poly-L-lysine coated 96 wells in M199 with 1%/FBS and HEPES. After 3 to 4 days of culture, growth was determined by incubating cells with Alamar blue for 4 to 6 hours and then the fluorescence (RFU) at 544/590 nm was read. For long term proliferation assays, cells were plated in the growth media with 5% or 10% FBS at densities of 500 to 10,000 cells per cm^2 growth area and grown for 7 to 21 days. Inhibitors and effectors were added 1-4 days after plating. Cells were exposed to cisplatin or gemcitabine for two days. Medium was renewed twice weekly. At completion, cells were fixed and then stained with Giemsa.
The human hepatoma cell line hep3B could be stimulated by many growth factors including IGF-1, IGF-2, HGF, bFGF, VEGF, and neuregulin.

[1] = test system: PC-9 non-small cell lung cancer cells; test: PC-9 subcutaneous tumors in NSG mice, daily erlotinib; assay type: in vivo; settings: erlotinib alone, 25 mg/kg orally daily; day 20
Description: as §1

[2] = biological target: T1, nrgEGF (amino acids Thr176-Lys246 of neuregulin-beta 1); test: Biacore binding to nrgEGF
Description: (§2) Biacore binding was performed at David Myszka's laboratory at the University of Utah or at the Genomic Research Center at Academia Sinica. Surfaces of binding protein chimera were made via chemical immobilization on a CM4 chip using standard amine coupling chemistry. […] Excess surface carboxyl activated sites on all four flow cells was blocked using the doubly positively charged species ethylenediamine. Binding experiments (but not immobilizations) in HBS-P (10 mM HEPES pH 7.4, 150 mM NaCl, 0.05% P20), The HBS-P was supplemented with BSA at 0.2 mg/mL, or HBS-P was supplemented with 500 mM NaCl (650 mM NaCl, final concentration). Analytes were also reconstituted in the corresponding buffer. All experiments were performed at 25° C. 1/150 dilutions of phosphoric acid were used to regenerate IGFBP3-Fc surfaces and a sequence of 3 M MgCl2 followed by 5 M GuCl was used to regenerate surfaces immobilized with growth factor. Dissociation constants reported below used immobilized binding protein unless noted. Differences between binding constants may be expected between growth factor immobilization and chimera immobilization.
In this example, erbB4 domain 1 was attached to the N-terminus of the recombinant IGFBP3-Fc or the recombinant IGFBP3-v1v2-Fc.

bFGF = biological target: T3, bFGF (Homo sapiens, UniProt P09038); test: Biacore binding to bFGF; parameters: key: +: sufficient to bind; −: unable to bind; settings: tested in .65M NaCL
T3 construct: purchased R&D Sciences or SinoBiologicals
Description: as §2

IGF-2 = biological target: T4, IGF-2 (Homo sapiens, UniProt P01344); test: Biacore binding to IGF-2; parameters: key: +: sufficient to bind; −: unable to bind; settings: tested in .65M NaCL
T4 construct: purchased R&D Sciences or SinoBiologicals
Description: as §2

VEGF B = biological target: T2, VEGF B; test: Biacore binding to VEGF B; parameters: key: +: sufficient to bind; −: unable to bind; settings: tested in .65M NaCL
Description: as §2

PDGF AB = biological target: T5, PDGF AB (Homo sapiens, UniProt P01127+P04085); test: Biacore binding to PDGF AB; parameters: key: +: sufficient to bind; −: unable to bind; settings: tested in .65M NaCL
T5 construct: purchased R&D Sciences or SinoBiologicals
Description: as §2

nrgbx = test: Biacore binding to nrgbx; parameters: key: +: sufficient to bind; −: unable to bind; settings: tested in .65M NaCL
Description: as §2

IGF-1 = biological target: T6, IGF-1 (Homo sapiens, UniProt P05019); test: Biacore binding to IGF-1; parameters: key to growth factor binding, igf1: +: sufficient to bind; −: unable to bind; settings: tested in .65M NaCL
T6 construct: purchased R&D Sciences or SinoBiologicals
Description: as §2

T3 sequence (P09038 143-288): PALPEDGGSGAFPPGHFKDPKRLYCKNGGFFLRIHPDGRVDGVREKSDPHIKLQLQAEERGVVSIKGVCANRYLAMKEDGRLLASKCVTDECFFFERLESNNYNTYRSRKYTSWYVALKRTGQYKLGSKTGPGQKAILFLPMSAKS
T4 sequence (P01344 25-91): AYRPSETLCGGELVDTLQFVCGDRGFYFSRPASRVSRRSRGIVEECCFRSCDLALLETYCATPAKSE
T5 sequence (P01127 82-190 limits assumed, other chains not shown): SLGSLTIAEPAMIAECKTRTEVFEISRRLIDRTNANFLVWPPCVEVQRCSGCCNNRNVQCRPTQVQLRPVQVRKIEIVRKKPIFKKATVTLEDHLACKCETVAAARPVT
T6 sequence (P05019 49-118 limits assumed): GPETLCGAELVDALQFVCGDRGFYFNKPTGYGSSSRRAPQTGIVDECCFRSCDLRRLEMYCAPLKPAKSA

Molecule	tumor regression with intermittent dosing (PC-9 tumors)	IC50 (hep3B cells; cells not treated with chimera h3t33Fc) [nM]	IC50 (hep3B cells; with the addition of 100 nM chimera h3t33Fc) [nM]	tumor volume of treated to control (T/C) [1] [%]	Kd [2] [nM]	growth factor binding, bFGF (bFGF)	growth factor binding, igf2 (IGF-2)	growth factor binding, VEGF B (VEGF B)	growth factor binding, PDGF AB (PDGF AB)	growth factor binding, nrgbx (nrgbx)	growth factor binding, igf1 (IGF-1)
C#Cc1cccc(Nc2ncnc3cc(OCCOC)c(OCCOC)cc23)c1 [erlotinib, reference compound]	did not cause the tumor regression	~10000	~100	38							
B1					11						
B2						−	+	−	−	−	+
B3						−	−	−	−	−	−
B4						+	+	+	+	+	+
